The values that follow come from patent US20260224761A1, “DUAL LABELLED COMPOUNDS TARGETING THE PROSTATE SPECIFIC MEMBRANE ANTIGEN” (priority 2023, published 2026).

Where two headings read alike, the source gives them in different places.

A short description of series [1]: Photophysical characterization (molar extinction coefficient, quantum yield, brightness) in human serum albumin solution. In kind it is physicochemical. As to conditions: for Brightness (HSA): multiplication of molar extinction coefficient and quantum yield. How it is done:
(§1) Quantum yield, molar extinction coefficient and serum protein binding experiments were performed according to previously published procedures (Hensbergen A. W. et al., Dyes and Pigments, 2018, 152, 19-28).
Table 1 summarizes the photophysical properties of [^99mTc]PSMA-HSG, [^99mTc]mas3-Cy5(SO3)—EuK and [^99mTc]mas3-(SO3)Cy5(SO3)—EuK and of the different sulfonated Cy5-dyes used for their preparation. […] Because of this latter effect we analyzed the brightness (as multiplication of the molar extinction coefficient and the quantum yield) in humans serum albumin for all three hybrid PSMA agents included in this study (see Table 1). While we indeed see that increasing of the number of sulfonates on the cyanine dye has a positive effect on the brightness all remain within the same order of magnitude.
Because of this latter effect, we analyzed the brightness (as multiplication of the molar extinction coefficient and the quantum yield) in human serum albumin solution for all three hybrid PSMA agents included in this study (see Table 1). While we indeed see that increasing of the number of sulfonates on the cyanine dye has a positive effect on the brightness, all remain within the same order of magnitude.

Series [2] deals with T1, PSMA (Homo sapiens, UniProt Q04609).
T1 construct: using PSMA-expressing LNCaP cells and ([^125I]I-BA)EuK as standard radioligand; endogenous in cells; host or cells: LNCaP cells
T1 sequence (Q04609 whole entry): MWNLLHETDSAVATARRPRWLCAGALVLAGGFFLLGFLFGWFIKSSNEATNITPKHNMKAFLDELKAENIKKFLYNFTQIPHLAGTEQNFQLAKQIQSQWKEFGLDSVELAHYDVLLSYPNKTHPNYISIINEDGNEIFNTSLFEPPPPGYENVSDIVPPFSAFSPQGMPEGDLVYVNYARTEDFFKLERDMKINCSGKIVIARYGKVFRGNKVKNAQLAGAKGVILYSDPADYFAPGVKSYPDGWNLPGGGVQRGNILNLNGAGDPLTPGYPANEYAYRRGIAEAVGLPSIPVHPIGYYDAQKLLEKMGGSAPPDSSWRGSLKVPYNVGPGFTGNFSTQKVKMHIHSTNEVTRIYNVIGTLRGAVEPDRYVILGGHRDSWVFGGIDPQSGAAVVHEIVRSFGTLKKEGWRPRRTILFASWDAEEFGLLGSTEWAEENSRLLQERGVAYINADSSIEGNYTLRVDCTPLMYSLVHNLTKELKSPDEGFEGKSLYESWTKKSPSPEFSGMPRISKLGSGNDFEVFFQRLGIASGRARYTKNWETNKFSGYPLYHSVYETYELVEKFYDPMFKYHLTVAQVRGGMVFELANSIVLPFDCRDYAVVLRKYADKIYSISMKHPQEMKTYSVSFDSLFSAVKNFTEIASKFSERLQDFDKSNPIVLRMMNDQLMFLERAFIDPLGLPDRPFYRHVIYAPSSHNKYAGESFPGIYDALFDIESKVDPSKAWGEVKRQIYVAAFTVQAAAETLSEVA
Briefly: Competitive binding experiments (IC50) using PSMA-expressing LNCaP cells and ([125I]I-BA)EuK as standard radioligand. The method, then:
Competitive binding experiments (IC50) were carried out in accordance with an established protocol ([…]. et al., Eur. J. Nuc. Mol. Med. Imaging Res., 2014, 4, 63) using PSMA-expressing LNCaP cells and ([^125I]I-BA)EuK as standard radioligand.

A further series relates to plasma proteins. Nature of the series: Plasma protein binding. In kind it is in vitro ADME. The method, then: as §1
In series [3] the test system is PC3-Pip xenografts in NSG mice. Briefly: In vivo and ex vivo fluorescence imaging of PC3-Pip xenografts in NSG mice. As to conditions: for detectable fluorescence signal: 6 h p.i., 0.1 nmol ligand. The method, then: FIG. 3: In vivo (A) and ex vivo (B) fluorescence imaging of PC3-Pip xenografts in NSG mice using PSMA-HSG (upper two rows), the reference Ac-mas3-Cy5(SO3)—EuK (middle two rows) and Ac-mas3-(SO3)Cy5(SO3)—EuK (lower two rows). Conditions were 2 h p.i. using a peptide dose of 1 nmol/mouse and 6 h p.i. using a peptide dose of 0.1 nmol/mouse, respectively (n=1 per condition). In vivo and ex vivo fluorescence imaging of intact tumors was performed using a clinical-grade fluorescence KARL STORZ Endoscope; fluorescence confocal imaging of 2 mm tumor slices (right) was performed using a Leica SP8 WLL microscope.
In vivo fluorescence imaging of PC3-Pip xenografts in NSG mice (2 h p.i. at a ligand dose of 1 nmol and 6 h p.i. at a ligand dose of 0.1 nmol, respectively; n=1 per compound and condition) was performed using a clinical-grade fluorescence laparoscopy set-up (KARL STORZ Endoskope GMBh & Co. KG). Cy5-based tumor imaging was performed using D-light P system and a prototype modified IMAGE 1 S light source with integrated Cy5 filter (both KARL STORZ Endoskope GMBh & Co. KG). Images were recorded using integrated KARL STORZ software and image processing was performed using in-house developed MATLAB software that provided a signal intensity-based representation of the signal-to-background ratio (SBR; Azargoshasb S. et al., Mol. Imaging Biol., 2022, https://doi.org/10.1007/s11307-022-01736-y; de Barros H. A. et al., Eur. Urol., 2022, 82, 97-105).
Fluorescence Confocal Imaging of Excised Tumor Specimens After in vivo imaging tumor specimens (N=1 per tracer) were excised and cut into 2 mm slices. Prior to imaging, slices were placed on a 35-mm culture dish containing a glass insert (MatTek Co.). Fluorescence confocal imaging was then performed using a Leica SP8 WLL microscope (Leica Microsystems). For assessment of tracer uptake Cy5 settings were used; λex=633 nm, λem=650-700 nm. Images were processed using accompanying LASX software (Leica Application Software Suite 4.8).

A short description of another series: Plasma protein binding. Type of series: in vitro ADME. As to conditions: plasma. The method, then:
as §1

In series [4] the target is T1, PSMA. As to conditions: LNCaP cells; reference compounds, assayed under identical conditions (literature cited in table title); # = free mas3-chelator; cited from earlier work.
A short description of series [5]: Lipophilicity, modified shake-flask method. In kind it is physicochemical. The method, then: The lipophilicity of [^99mTc]PSMA-HSG, [^99mTc]EuK(SO3)Cy5-mas3 and [^99mTc]EuK(SO3)Cy5(SO3)-mas3 was determined via a modified shake-flask method as described ([…]. et al., Eur. J. Nuc. Mol. Med. Imaging Res., 2014, 4, 63).
Series [6] is described as follows: Biodistribution in LNCaP xenograft bearing NSG mice. Type of series: in vivo. As to conditions: NSG, mouse, in vivo, iv, 0.1 nmol/animal, total radioactivity, Biodistribution: LNCaP tumor. The method, then: The biodistribution of [^99mTc]PSMA-HSG, [^99mTc]EuK(SO3)Cy5-mas3 and [^99mTc]EuK(SO3)Cy5(SO3)-mas3 was investigated in LNCaP xenograft bearing NSG mice. […] (0.1 nmol-cohort), respectively.
To assess the influence of the different ligand designs of [^99mTc]PSMA-HSG and [^99mTc]mas3-(SO3)Cy5(SO3)—EuK on in vivo PSMA-targeting and general pharmacokinetics, their in vivo biodistribution was investigated in LNCaP xenograft bearing NSG mice in two different experimental settings: • A) at 2 h p.i. using a ligand dose of 1 nmol/animal. These conditions were chosen to allow comparability of the data from this study (Table 3) with previous results in a different tumor model (Hensbergen, A. W. et al., J. Nucl. Med., 2020, 61, 234-241). Here, [^99mTc]mas3-Cy5(SO3)—EuK was additionally included as an internal reference to establish the “missing link” between studies. • B) at 6 h p.i. using a ligand dose of 0.1 nmol/animal (Table 4). The latter settings were adapted to a timeline and dosing with more similarity to the clinical situation (surgery at a later time point, microdosing principle). Of note, however, a ligand amount of 0.1 nmol/mouse (extrapolation: 280 nmol/70 kg patient) still exceeds the potentially applicable clinical dose (48 nmol/70 kg patient for a compound with a molecular weight of −2100 g/mol). Nevertheless, it represents a dose level at which significant competition effects between unlabeled precursor and radioligand for PSMA binding sites in tumor tissue are not probable (Eder A. C. et al., J. Nucl. Med., 2021, 62, 1461-1467; Kalidindi T. M. et al., Eur. J. Nucl. Med. Mol. Imaging, 2021, 48, 2642-2651).

Series [7] has as its system LNCaP xenograft bearing male NSG mice. Briefly: Small animal SPECT/CT blocking study with 2-PMPA co-injection. In kind it is in vivo. As to conditions: 2-4 h p.i.; 1 nmol; co-injection of 1 μmol 2-PMPA. How it is done:
FIG. 1: Small animal SPECT/CT study in LNCaP xenograft bearing male NSG mice at 2-4 h p.i. […] White arrows indicate the position of the LNCaP xenograft. SPECT/CT images were acquired using an Albira Si PET/SPECT/CT (Bruker Biospin Corporation, Woodbridge, CT, USA) instrument. […] For reconstruction, an ordered subset expectation-maximization algorithm (OSEM) with two iterations was used, and scatter correction was applied. For CT, the following parameters were used: 400 μA intensity and 35 kV voltage, 600 projections. Images were reconstructed using a filtered back-projection (FBP) algorithm with de-ringing correction. Fused representative SPECT/CT images were acquired using the PMOD software (PMOD technologies, version 3.709, Zurich, Switzerland).

[8] abbreviates: tendency to associate with plasma proteins.

The term IC50 denotes the concentration needed to halve the response being measured. `CC(=O)SCC(=O)N[C@H](CO)C(=O)N[C@H](CO)C(=O)N[C@H](CO)C(=O)NCCCCCC(=O)NCCCCN1/C(=C/C=C/C=C/C2=[N+](CCCCCC(=O)NCCCC[C@H](NC(=O)N[C@@H](CCC(=O)O)C(=O)O)C(=O)O)c3ccc(S(=O)(=O)O)cc3C2(C)C)C(C)(C)c2cc(S(=O)(=O)[O-])ccc21` [Ac-mas3-(SO3)Cy5(SO3)-EuK]: in series [1], the “Quantum yield (HSA)” value is on record as 16%, the Brightness (HSA) came to 38900 L/mol/cm and the Molar extinction coefficient free dye (HSA) stood at 243000 L/mol/cm. For the same molecule, in series [1] (text b242), the “brightness compared to PSMA-HSG” value is recorded as “fivefold lower brightness”. For the same molecule, on PSMA [2], the “reduction in affinity compared to the mono-sulfonated analog Ac-mas3-Cy5(SO3)-EuK” value is “almost eight-fold reduction”. This molecule also had an IC50 at PSMA [2] (LNCaP cells, free mas3-chelator, novel compounds) of 131 ± 29 nM. For the same molecule, the “tendency to associate with plasma proteins” value with plasma proteins stood at 77.9%. In addition, the “fluorescence signal in the xenografts” value in series [3] (2 h p.i., ligand dose 1 nmol, in vivo and ex vivo) is “weakest signal”. In series [3], the detectable fluorescence signal entry is listed as “virtually not detectable”.

Broadly, the fraction unbound is free concentration divided by total concentration. A low value points to little free substance. As for `CC(=O)SCC(=O)N[C@H](CO)C(=O)N[C@H](CO)C(=O)N[C@H](CO)C(=O)NCCCCC(=O)NCCCCN1\C(=C/C=C/C=C/C2=[N+](CCCCCC(=O)NCCCC[C@H](NC(=O)N[C@@H](CCC(=O)O)C(=O)O)C(=O)O)c3ccc(S(=O)(=O)[O-])cc3C2(C)C)C(C)(C)c2ccccc21` [Ac-mas3-Cy5(SO3)-EuK], in series [1], the “Quantum yield (HSA)” value was found to be 21%, the Brightness (HSA) turned out to be 33800 L/mol/cm and the Molar extinction coefficient free dye (HSA) was found to be 161000 L/mol/cm. The molecule further had a fraction unbound in “Plasma protein binding” (setting [8]) of 0.028. For the same molecule, in series [3], the detectable fluorescence signal result is reported as “weak”. Moreover, at PSMA [4], the IC50 was 17.8 ± 2.9 nM.

What is called logP is the decadic logarithm of the partition coefficient of the neutral form, usually between octanol and water. A low value points to a more hydrophilic compound. For orientation: tissue uptake means the share of the injected amount in each gram of the tissue. On to `C[N+]1=C(/C=C/C=C/C=C2/N(CCCCCC(=O)NCCCC[C@@H](NC(=O)[C@@H](CO)NC(=O)[C@@H](CO)NC(=O)[C@@H](CO)NC(=O)CS)C(=O)N[C@H](Cc3ccc(O)cc3)C(=O)N[C@H](Cc3ccc4ccccc4c3)C(=O)N[C@H](CCCCNC(=O)CCCCCCC(=O)NCCCC[C@H](NC(=O)N[C@@H](CCC(=O)O)C(=O)O)C(=O)O)C(=O)O)c3ccc(S(=O)(=O)O)cc3C2(C)C)C(C)(C)c2cc(S(=O)(=O)[O-])ccc21` [[^99mTc]PSMA-HSG, metal not drawn], for which the logP in series [5] was -2.94. The fraction unbound was 0.007 in “Plasma protein binding” (Plasma Protein Binding (%)) and 0.006 in “Plasma protein binding” (setting [8]). For the same molecule, the tissue uptake at 6 h in [6] stood at 17.1 ± 2.9 %ID/g. Further, in [7], the “specificity of tracer uptake in tumor and PSMA-positive tissues” value is recorded as “PSMA-specific”.
